Assay results reported in patent publication US10143748B2, “B-cell reduction using CD37-specific and CD20-specific binding molecules” (Emergent Product Development Seattle, LLC, priority 2005, dated 2018).
“Also recorded” adds a separate entry of the source.

Key:
[1] = target: T1, CD37 cell surface receptor (Homo sapiens, UniProt P11049); assay: TRU-016 binding to human PBMC, two-color flow cytometry
T1 construct: Human PBMCs were isolated over LSM density gradients and incubated with unconjugated TRU-016; endogenous in cells; host or cells: human PBMC (CD19-positive B lymphocyte gate)
T1 sequence (P11049 1-281): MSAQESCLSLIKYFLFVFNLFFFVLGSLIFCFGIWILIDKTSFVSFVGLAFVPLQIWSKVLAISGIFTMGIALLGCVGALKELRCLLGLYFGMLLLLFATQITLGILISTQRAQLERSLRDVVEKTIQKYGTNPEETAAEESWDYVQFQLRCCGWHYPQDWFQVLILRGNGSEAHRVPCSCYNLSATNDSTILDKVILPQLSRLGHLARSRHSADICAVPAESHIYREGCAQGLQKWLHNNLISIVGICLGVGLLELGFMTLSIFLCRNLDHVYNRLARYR
Method: Experiments were also performed to determine that the binding specificity of the parent antibody to the CD37 cell surface receptor is preserved in TRU-016. Human PBMCs were isolated over LSM density gradients and incubated with unconjugated TRU-016 and PE-conjugated anti-human CD19. Cells were washed and incubated with 1:100 FITC GAH IgG (Fc specific) for 45 minutes on ice. Cells were washed and analyzed by two-color flow cytometry on a FACsCalibur instrument using Cell Quest software. Cells were gated for B lymphocytes or non-B lymphocytes by CD19 staining.
With increasing concentrations of TRU-016, the FITC signal on the B lymphocyte (CD19 positive gate) increased rapidly from 0.01-1.0 μg/ml, until it reached saturation at approximately 1 μg/mL or a mean fluorescence intensity (MFI) of 1000. […] Thus, the staining pattern of the G28-1 murine monoclonal antibody is preserved with TRU-016 (FIG. 1C).

Ramos cells = assay: Annexin V/PI apoptosis analysis, Ramos; type: cell-based, human; details: 24 hours, TRU-016 10 μg/mL (unfractionated)
Method: Experiments examining the effect of B cell targeted SMIPS on B cell line apoptosis were performed. Each SMIP was tested individually and then in combination. Samples were analyzed at both 24 and 48 hours after initiation of incubation reactions. […] In addition, 20 μg/mL goat anti-human IgG was added to reactions in order to cross link reagents on the cell surface. Cells were then stained with Annexin V-FITC and propidium iodide using the BD Pharmigen Apoptosis Detection Kit I (#556547), and processed according to kit instructions. Briefly, cells were washed twice with cold PBS and resuspended in “binding buffer” at 1×10^6 cells/mL. One hundred microliters of the cells in binding buffer were then stained with 5 μl of Annexin V-FITC and 5 μl of propidium iodide. The cells were gently vortexed and incubated in the dark at room temperature for 15 minutes. Four hundred microliters of binding buffer was then added to each sample. They were then read and analyzed on a FACsCalibur (Becton Dickinson) instrument using Cell Quest software (Becton Dickinson).
Similar data were obtained whether Ramos or BJAB cells were used as the binding targets in these assays.

[2] = system: Rituximab-resistant cells (Raji 4RH and RL 4RH); assay: direct cytotoxicity in rituximab-resistant cells, annexin/PI; type: cell-based; details: TRU-016 5 μg/mL, rituximab 10 μg/mL, five-fold excess goat anti-human IgG, 24 hours
Method: Direct cytoxicity was measured by annexin/PI staining and cell viability (percent) was calculated relative to control cells (cells treated with herceptin).

[3] = system: CD19+ primary CLL B cells; assay: tyrosine phosphorylation, 2D gel anti-phosphotyrosine immunoblot; type: cell-based, human; details: 5 ug/ml, 10 minutes, then crosslinker 25 ug/ml 5 minutes, FIG. 29
Method: Freshly isolated CD19+ cells (−50−100×106) from CLL patients were suspended at a concentration of 5×10^6/ml PBS. Cells were then incubated for 10 minutes at 37° C., 5% CO2, with control, trastuzumab (herceptin), or TRU-016 at a final concentration of 5 ug/ml. Cells were spun down, supernatant was removed, and cells were resuspended in fresh PBS of initial volume. Goat anti-human Fc fragment specific crosslinker (25 ug/ml) was added and cells were incubated for an additional 5 minutes. Cells were again spun down, supernatant was removed, and cells were lysed in 1 ml of RIPA lysis buffer with protease and phosphatase inhibitors (10 mM Tris, ph7.4, 150 mM NaCl,1% Triton X-100, 1% deoxycholic acid, 0.1% SDS and 5 mM EDTA all final concentrations. Sigma protease inhibitor cocktail cat#P-8340; Sigma phosphatase inhibitor cocktail: serine/threonine phosphatase inhibitor cocktail pat#P-2850; and tyrosine phosphatase inhibitor cat#P-5726;PMSF (100 mM) were all used. The inhibitors were added to the lysis buffer immediately prior to use at a 1:100 dilution. Protein concentration in the lysates was quantified by the bicin choninic acid (BCA) method (Pierce, Rockford, Ill.). The control arid treated protein samples (SOug total protein) were separated by two-dimensional gel electrophoresis (pH Range 3-10) (1st Dimension) and 10% SDS-PAGE (2nd Dimension). […]

G28-1 scFv VH11S(SSC—P)H WCH2 WCH3 [TRU-016]
mean fluorescence intensity (MFI) at saturation ([1]; B lymphocyte (CD19 positive gate)): 1000
staining of / binding to the non-B lymphocyte population ([1]; CD19 negative gate): much lower level of binding; also recorded: detectable, but very low
binding to human peripheral blood B lymphocytes ([1]; flow cytometry, FIG. 1C): high level, specific binding
concentration at which FITC signal on B lymphocytes (CD19 positive gate) reached saturation ([1]; human PBMC, FITC GAH IgG detection): approximately 1 μg/mL
% of annexin V positive-PI negative cells (Ramos cells; 8.5% before): 19.7%
% of annexin V-PI double positive cells (Ramos cells; 11.3% before): 32.8%
cell toxicity (cell viability relative to herceptin-treated cells) [2]: greater cell toxicity than rituximab
tyrosine phosphorylation [3]: induced tyrosine phosphorylation
